Biological target: T1, recombinant hPD1 (Sino Biologicals, reference 10377-H08H) (human, UniProt Q15116 25-167)
T1 construct: also called Human recombinant PD-1; rPD1
Experiment: ELISA: human recombinant PD-1 immobilised, detection with anti-human Fc-peroxidase, TMB
Experimental: PD-1 binding ELISA assay. Human recombinant PD-1 (rPD1) protein was immobilized, and antibodies were added at different concentrations. Revelation was performed with an anti-human Fc antibody coupled to peroxidase. Colorimetry was determined at 450 nm using TMB substrate. The bifunctional molecules comprising an IL7 W142H N297A variant with 1 anti PD-1 arm ( ) was tested as control.

T1 sequence (Q15116 25-167 limits assumed): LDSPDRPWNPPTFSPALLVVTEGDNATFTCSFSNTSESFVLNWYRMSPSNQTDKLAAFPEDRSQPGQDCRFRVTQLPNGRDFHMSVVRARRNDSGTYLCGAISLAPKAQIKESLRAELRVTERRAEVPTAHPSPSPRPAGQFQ

EC50 (read off the curve) | Binder
~0.05 µg/mL | anti PD-1*1 IL7 W142H*1 N297A DHS (other, also called IL7 W142H N297A DHS) DKTHTCPPCPAPELLGGPSVFLFPPKPKDTLMISRTPEVTCVVVDVSHEDPEVKFNWYVDGVEVHNAKTKPREEQYASTYRVVSVLTVDHHDWLNGKEYKCKVSNKALPAPIEKTISKAKGQPREPQVYTLPPCRDELTKNQVSLWCLVKGFYPSDIAVEWESNGQPENNYKTTPPVLDSDGSFFLYSKLTVDKSRWQQGNVFSCSVMHEALHSHYTQKSLSLSPGK heavy: QIQLVQSGSELKKPGASVKVSCKASGYTFTHYAMNWVRQAPGQGLEWMGWINTNTGEPTYAQGFTGRFVFSLDTSVSTAYLQISSLKAEDTAVYYCAREREPGMDNWGQGTLVTVSSASTKGPSVFPLAPSSKSTSGGTAALGCLVKDYFPEPVTVSWNSGALTSGVHTFPAVLQSSGLYSLSSVVTVPSSSLGTQTYICNVNHKPSNTKVDKKVEPKSCDKTHTCPPCPAPELLGGPSVFLFPPKPKDTLMISRTPEVTCVVVDVSHEDPEVKFNWYVDGVEVHNAKTKPREEQYASTYRVVSVLTVDHHDWLNGKEYKCKVSNKALPAPIEKTISKAKGQPREPQVCTLPPSRDELTKNQVSLSCAVKGFYPSDIAVEWESNGQPENNYKTTPPVLDSDGSFFLVSKLTVDKSRWQQGNVFSCSVMHEALHSHYTQKSLSLSPGKGGGGSGGGGSGGGGSDCDIEGKDGKQYESVLMVSIDQLLDSMKEIGSNCLNNEFNFFKRHICDANKEGMFLFRAARKLRQFLKMNSTGDFDLHLLKVSEGTTILLNCTGQVKGRKPAALGEAQPTKSLEENKSLKEQKKLNDLCFLKRLLQEIKTCHNKILMGTKEH light: DVVMTQSPLSLPVTLGQPASISCRSSQSLVHANTNTYLEWYQQRPGQSPRLLIYKVSNRFSGVPDRFSGSGSGTDFTLKISRVEAEDVGVYYCFQGTHVPNTFGQGTKLEIKRTVAAPSVFIFPPSDEQLKSGTASVVCLLNNFYPREAKVQWKVDNALQSGNSQESVTEQDSKDSTYSLSSTLTLSKADYEKHKVYACEVTHQGLSSPVTKSFNRGEC
~0.03 µg/mL | anti PD-1*1 IL7 W142H*1 N297A LS (other, Fc mutant of anti PD-1*1 IL7W142H*1; also called IL7 W142H N297A LS) DKTHTCPPCPAPELLGGPSVFLFPPKPKDTLMISRTPEVTCVVVDVSHEDPEVKFNWYVDGVEVHNAKTKPREEQYASTYRVVSVLTVLHQDWLNGKEYKCKVSNKALPAPIEKTISKAKGQPREPQVYTLPPCRDELTKNQVSLWCLVKGFYPSDIAVEWESNGQPENNYKTTPPVLDSDGSFFLYSKLTVDKSRWQQGNVFSCSVLHEALHSHYTQKSLSLSPGK heavy: QIQLVQSGSELKKPGASVKVSCKASGYTFTHYAMNWVRQAPGQGLEWMGWINTNTGEPTYAQGFTGRFVFSLDTSVSTAYLQISSLKAEDTAVYYCAREREPGMDNWGQGTLVTVSSASTKGPSVFPLAPSSKSTSGGTAALGCLVKDYFPEPVTVSWNSGALTSGVHTFPAVLQSSGLYSLSSVVTVPSSSLGTQTYICNVNHKPSNTKVDKKVEPKSCDKTHTCPPCPAPELLGGPSVFLFPPKPKDTLMISRTPEVTCVVVDVSHEDPEVKFNWYVDGVEVHNAKTKPREEQYASTYRVVSVLTVLHQDWLNGKEYKCKVSNKALPAPIEKTISKAKGQPREPQVCTLPPSRDELTKNQVSLSCAVKGFYPSDIAVEWESNGQPENNYKTTPPVLDSDGSFFLVSKLTVDKSRWQQGNVFSCSVLHEALHSHYTQKSLSLSPGKGGGGSGGGGSGGGGSDCDIEGKDGKQYESVLMVSIDQLLDSMKEIGSNCLNNEFNFFKRHICDANKEGMFLFRAARKLRQFLKMNSTGDFDLHLLKVSEGTTILLNCTGQVKGRKPAALGEAQPTKSLEENKSLKEQKKLNDLCFLKRLLQEIKTCHNKILMGTKEH light: DVVMTQSPLSLPVTLGQPASISCRSSQSLVHANTNTYLEWYQQRPGQSPRLLIYKVSNRFSGVPDRFSGSGSGTDFTLKISRVEAEDVGVYYCFQGTHVPNTFGQGTKLEIKRTVAAPSVFIFPPSDEQLKSGTASVVCLLNNFYPREAKVQWKVDNALQSGNSQESVTEQDSKDSTYSLSSTLTLSKADYEKHKVYACEVTHQGLSSPVTKSFNRGEC

Reference: US20240067727A1 (OSE IMMUNOTHERAPEUTICS, published 2024)
